One substance from PMC12436618 can be followed below.

In this experiment the target is KIF1A-201(1-482)-His (mouse). Nature of the experiment: SEC; Superdex 200 Increase 10/300 GL; 250 µg of each protein at about 1.2 µg/µl; 20 mM PIPES-KOH pH 7.0, 150 mM KCl, 1 mM MgCl2, 0.1% Tween 20; size from a calibration curve of globular standards; monomer to dimer.

In turn, “KIF1A-201(1-482)-His (domain or fragment)” displayed a stoichiometry N of 2.

What is called stoichiometry N is the number of molecules, sites or subunits per partner or assembly.
